B1: pyocin R2 tube protein (natural protein)
chain: MIPQTLTNTNLFIDGVSFAGDVPSLTLPKLAVKTEQYRAGGMDAPVSIDMGLEAMEAKFSTNGARREALNFFGLADQSAFNGVFRGSFKGQKGASVPVVATLRGLLKEVDPGDWKAGEKAEFKYAVAVSYYKLEVDGREVYEIDPVNGVRAINGVDQLAGMRNDLGL
B2: pyocin R2 sheath protein (natural protein)
chain: MSFFHGVTVTNVDIGARTIALPASSVIGLCDVFTPGAQASAKPNVPVLLTSKKDAAAAFGIGSSIYLACEAIYNRAQAVIVAVGVETAETPEAQASAVIGGISAAGERTGLQALLDGKSRFNAQPRLLVAPGHSAQQAVATAMDGLAEKLRAIAILDGPNSTDEAAVAYAKNFGSKRLFMVDPGVQVWDSATNAARNAPASAYAAGLFAWTDAEYGFWSSPSNKEIKGVTGTSRPVEFLDGDETCRANLLNNANIATIIRDDGYRLWGNRTLSSDSKWAFVTRVRTMDLVMDAILAGHKWAVDRGITKTYVKDVTEGLRAFMRDLKNQGAVINFEVYADPDLNSASQLAQGKVYWNIRFTDVPPAENPNFRVEVTDQWLTEVLDVA

Target: the molecule itself
Test: cryo-EM structure

| Protein | stoichiometry N | binding result |
| --- | --- | --- |
| B1 | 6 |  |
| B2 |  | binds |

Source: PMC4445970 (Nature structural & molecular biology, 2015)
